Experimental findings from article PMC6722078, “Defects in t^6A tRNA modification due to GON7 and YRDC mutations lead to Galloway-Mowat syndrome” (Nature Communications, 2019) are described below.

The test concerns the target T1, LAGE3 (full-length, subunit of the recombinant GON7/LAGE3/OSGEP complex) (human, UniProt Q14657 1-143).
T1 construct: LAGE3, human, KEOPS subunit (homolog of Pcc1); full-length protein used for all structural work; no electron density for the 60 N-terminal residues; source: recombinant, co-expressed with the other KEOPS subunits, purified (size exclusion chromatography, NiIDA); details in Supplementary Methods
T1 sequence (looked up): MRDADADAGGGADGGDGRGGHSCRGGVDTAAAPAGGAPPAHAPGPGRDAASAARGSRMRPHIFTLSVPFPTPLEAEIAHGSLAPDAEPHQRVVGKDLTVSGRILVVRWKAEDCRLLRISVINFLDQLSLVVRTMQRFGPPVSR
Briefly: SEC-SAXS; SAXS on samples eluting from an online size exclusion HPLC column; 20 mM MES pH 6.5, 200 mM NaCl, 5 mM 2-mercaptoethanol; purified recombinant GON7/LAGE3/OSGEP complex. The note with it: both partners purified.

B1: OSGEP (full-length, subunit of the recombinant GON7/LAGE3/OSGEP complex) (enzyme, human, UniProt Q9NPF4 1-335, looked up)
chain: MPAVLGFEGSANKIGVGVVRDGKVLANPRRTYVTPPGTGFLPGDTARHHRAVILDLLQEALTESGLTSQDIDCIAYTKGPGMGAPLVSVAVVARTVAQLWNKPLVGVNHCIGHIEMGRLITGATSPTVLYVSGGNTQVIAYSEHRYRIFGETIDIAVGNCLDRFARVLKISNDPSPGYNIEQMAKRGKKLVELPYTVKGMDVSFSGILSFIEDVAHRMLATGECTPEDLCFSLQETVFAMLVEITERAMAHCGSQEALIVGGVGCNVRLQEMMATMCQERGARLFATDERFCIDNGAMIAQAGWEMFRAGHRTPLSDSGVTQRYRTDEVEVTWRD
notes: OSGEP, human, catalytic subunit of the KEOPS complex (homolog of Kae1); full-length protein used for all structural work; source: recombinant, co-expressed with the other KEOPS subunits, purified (size exclusion chromatography, NiIDA); details in Supplementary Methods
For B1, the “stoichiometry N” value came out at 1.

B2: GON7 (full-length, subunit of the recombinant GON7/LAGE3/OSGEP complex) (natural protein, human, UniProt Q9BXV9 1-100, looked up)
chain: MELLGEYVGQEGKPQKLRVSCEAPGDGDPFQGLLSGVAQMKDMVTELFDPLVQGEVQHRVAAAPDEDLDGDDEDDAEDENNIDNRTNFDGPSAKRPKTPS
notes: GON7 (alias C14orf142), human, fifth subunit of the KEOPS complex; full-length protein used for all structural work; only residues 1-20 and 25-50 are seen in the crystal; also called C14orf142; GON7-his; source: recombinant, co-expressed with the other KEOPS subunits, purified (size exclusion chromatography, NiIDA); details in Supplementary Methods
For the molecule B2, the “stoichiometry N” value is 1.
